# Assay: soluble on expression in E. coli; label from the status in PepcDB or PDB records
row,Sequence,soluble on expression in E. coli
1,AVVSTDEYVTRTNIYYHAGSSRLLAVGHPYYAIKKQDSNKIAVPKVSGLQYRVFRVKLPDPNKFGFPDTSFYDPASQRLVWACTGVEVGRGQPLGVGISGHPLLNKLDDTENSNKYVGNSGTDNRECISMDYKQTQLCLIGCRPPIGEHWGKGTPSNANQVKAGECPPLELLNTVLQDGDMVDTGFGAMDFTTLQANKSDVPLDICSSICKYPDYLKMVSEPYGDMLFFYLRREQMFVRHLFNRAGTVGETVPADLYIKGTTGTLPSTSYFPTPSGSMVTSDAQIFNKPYWLQRAQGHNNGICWSNQLFVTVVDTTRSTNMSVCSAVSSSDSTYKNDNFKEYLRHGEEYDLQFIFQLCKITLTADVMTYIHSMNPSILEDWNGGSGGDPLKNYTFWEVDLKEKFSADLDQFPLGRKFLLQAGL,soluble
2,MPLLCALIVGGLFGTSQAQAGGFMVPTTNTAGWGRAMAGGSLFPNDPSAAFNNPAAMAFIDKRIAQLTVNYADIDIKYNGDAYDYQGNPMTGGYQDGPGTPELGTNDGGQAGFGAWLPTGFLVVPINDRFAFGLSQVVPMGMRSTWDPNWKGRDFAVDTKIETIGLTGSLSFKVNDNFSLGAGVIIQRTSGFVSQNLDLYASAANSPGMGGIPFPASNSSALMRVKVDNTSPGFFAGAVWKPTDRDTLGFAYHAKIRNKLKGHYNLYDHDGGLTEGAIEGGTPGLAYPGLDLRMGASASARLDIPAYASLDWVHQFNDRLSLGASATWTEWSSFQDLTLKSHGNTIVSIPYTYRNTWTLAVGGDYKVTDQWTMRAGVAYDQTPTHNATRDPRIPDGDRYFASLGAGYRFQSMPELSIDAAYSRQFVKEVPLKTVNQDRLGGGRLDGRATSKGQVFSLSATYDF,not soluble
3,ISEFGSTMARAIYDFFSTPFGNRGLATNRTQLSSLLSSSNSPWQRFLSSMTPLTAPGIVSTPEAPYPGSLMYQESMLHSATVPGVLGSRDAWRTFNVFGLSWTDEGLSGLVAAQDPPPAAPYQPASAQWSDLLNYPRWANRRRELQSKYPLLLRSTLLSAMRAGPVLYVETWPNMISGRLADWFMSQYGNNFVDMCARLTQSCSNMPVEPDGNYDQQMRALISLWLLSYIGVVNQTNTISGFYFSSKTRGQALDSWTLFYTTNTNRVQITQRHFAYVCARSPDWNVDKSWIAAANLTAIVMACRQPPVFANQGVINQAQNRPGFSMNGGTPVHELNLLTTAQECIRQWVMAGLVSAAKGQALTQEANDFSNLIQADLGQIKAQDDALYNQQPGYARRIKPFVNGDWTPGMTAQALAVLATFTA,soluble
4,MLEGVVRRREGPDYTVRIKPVARSRILTLPDAPERSSPVIVGIDPGITTGLAVLDINGRLLHAESSKSLDRSRVTEIVYGLGRPVIVAVDVADPPETAKKLAAQWGAMLYTPPADLTTSEKWGLARRVLGSSVEDTHVRDLEHHHHHH,not soluble
5,MCKLAGPQHSEIGFPISTDNASWRGPNIEAGGKSAYNNVQVGE,not soluble
6,SSYNILSQDLLEDNSHLYRHCRRPVLHWSFRFPNILKEIKHFDADVLCLQEVQEDHYGAEIRPSLESLGYHCEYKMRTGRKPDGCAICFKHSKFSLLSVNPVEFFRPDISLLDRDNVGLVLLLQPKIPYAACPAICVANTHLLYNPRRGDIKLTQLAMLLAEISSVAHQKDGSFCPIVMCGDFNSVPGSPLYSFIKEGKLNYEGLPIGKVSGQEQSSRGQRILSIPIWPPNLGISQNCVYEVQQVPKVEKTDSDLTQTQLKQTEVLVTAEKLSSNLQHHFSLSSVY,soluble
7,MSLIDKTKLLQNFQFHLPTGYHKESLARLNFMKGKPLRDAAVLIGFVDRPEGLQVILTKRAEHLRHHPGQISFPGGKFEPEDIHLVNTALRETNEEVGIEDKHIHVFGQLPKLPTISQFNVTPFLAFISPDYKTHIDPNEVESVFEVPANHILNPNKLYSSKFELKRSSHRVFAIPYRQHFIWGMTAQIIESMQKHIISGEGHHHHHH,soluble
8,MAHNNYLDLEMLFNECNAQHYENLGMFFKWLQQFAAHHEDPKITIKDFKGDKTSGEMILHVNTFTLFKYRQEFDMKVSALNDNGLGWKILFVDRSLGCN,not soluble
9,MSLILRWGIIGPGWIAERFVHSLKTYSRQQVVAVASRSQAKADRVAAEWGIPQAYGQVEEMLARPDIDAVYIATPHNHHFPDGMQALKAGKHVLIEKPFALNLGEGRELQAEAARQEKLALEAMWCDYAPKYDVIRQLLEDGALGDLHTLLADHGEYFTRDHRIFNADLAGGPMMDLGSYVTSFALMVGGMPQEIVARGSATAEGLNGQTSMLFSWQNGMQGLLNTTLFSNTPGGAVVAGRQATLTIDGQFYAPGGFTLAASQGGQVLRWEEPRNRYDQLFWQAEHFAWCIGQGLQDSPLRPLSRVLQNLQVMDEVRRQVGAVFNEEREGHHHHHH,not soluble
10,MEQCNERPKVSVIIPVYNTCNYVQEALESICQQTLEELEIIVIDDGSTDCSRAIVEEIAIKDTRIQVYKQSNQGLSITRNQGLKFSTGEYIYFMDSDDFLEPDALELCYRKCTKEALDFVFFDAETFTIEPNIPESSFDYQRTLDLPEKICSGIDMLKTQLKTYKFKSSVCLNLFHREFICEERLSFYPGILHEDQLFMIQAYLHASKTGFIRRSFFHRRIRTNSIMTKKFTWKNMEGYLTVTNELLRELPIYPKTYHHTIFFFLRQMLDAAVWQAHTLSLPQRIKLFSLCLKYYRPYVTMRTLMVLLLKTSIHPRQ,soluble
11,FLLEIGLEEMPAKYVTSSVLQLEKRVTDWLKDNQIEFKEIKTYSTPRRLTVLVEEMAEEQANRVEEAKGPAKKIALDDEGNWSKAALGFAKSQKVAPEDLTFREIKGVEYIYIKKEVIGEKTTALLPSLEKVVTSMTFPVSMHWGSNDLRYIRPIKWLIAMFGEEIIPFEITGVSTSNTSRGHRFLGKTATINQPSDYPHALLEQFVVVNASERKQAIVEQLRELETMENWQIREDDDLLEEVTNLVEYPTVLAGNFEKEYLELPEEVLITTMKEHQRYFPVFSQEGELLPHFVTVRNGNHENLDTVARGNEKVLRARLSDADFFYQEDLKITIDEAVAKLQNIVFHEKLGTLTEKMERVQKVALMLADYLNWQEEDKQDIIRLTNIYKFDLVTNIVGEFPELQGLMGEKYALLQGEKPAIATAIREHYLPSSAEGVLPQTDLGSLIAIADKLETLIGFFCVNIVPTGSADPFGLRRSAFGAMRIIQANGWDIPMLEVISRIVDMERAEGATELPSADVKKEVQTFLKNRLRVILQGHHIRHDIIDAVIGGDPNV,not soluble
12,MIEIKQVKTQDEVNYTFVEKLMHTAFPQEERRDTVQQREYSDNNPRFCNNIILENGNSIGMISYWTMGDFYYIEHFAIDPSLRNGGYGKRVLEMIKKQLKGPIVLEVEEPNDEMSTRRIHFYKRLEFTLHKKPYIQPPYRKGDSGLPMLLMTYGDIDMESDFEKVKKTLYKEVYGQEI,not soluble
13,MGSDKIHHHHHHMIVNLSRLGKSGTGMWQYSIKFLTALREIADVDAIICSKVHADYFEKLGYAVVTVPNIVSNTSKTSRLRPLVWYVYSYWLALRVLIKFGNKKLVCTTHHTIPLLRNQTITVHDIRPFYYPDSFIQKVYFRFLLKMSVKRCKHVLTVSYTVKDSIAKTYNVDSEKISVIYNSVNKSDFIQKKEKENYFLAVGASWPHKNIHSFIKNKKVWSDSYNLIIVCGRTDYAMSLQQMVVDLELKDKVTFLHEVSFNELKILYSKAYALVYPSIDEGFGIPPIEAMASNTPVIVSDIPVFHEVLTNGALYVNPDDEKSWQSAIKNIEQLPDAISRFNNYVARYDFDNMKQMVGNWLAESK,not soluble
14,GGGQCYFIPNQSLKPNECQDLKGVSHPLNSVWKTKDCEECTCGQDAISCCNTAAIPTGYDTNKCQKILNKKTCTYTVVEKKDPGKTCDVTGWVL,soluble
15,MYLPAHFAETRPEELARIIRAHPLGMLVTQDAQGLDADHLPFEFDPDAGPHGTLIAHVARANTLWQRCPDGSAVMVVFRGAEGYISPNWYPSKHEAHRQVPTWNYEVVHAHGTLAVRDDERFVRGVVARLTRRHEAGEPRPWKMTDSTPEYIDSMLRNIVGIEVAITSLVGKRKLSQNKDERDRLGAVQALQARGQDTLAQSMARAELEHHHHHH,not soluble
